We go through 2 molecules from patent publication US20260275312, “CRISPR NUCLEASE POLYPEPTIDES AND GENE EDITING SYSTEMS COMPRISING SUCH” (ARBOR BIOTECHNOLOGIES, INC., published 2026).

One data set deals with T1, Nuclease S D844R (synthetic construct, D844R).
T1 chain: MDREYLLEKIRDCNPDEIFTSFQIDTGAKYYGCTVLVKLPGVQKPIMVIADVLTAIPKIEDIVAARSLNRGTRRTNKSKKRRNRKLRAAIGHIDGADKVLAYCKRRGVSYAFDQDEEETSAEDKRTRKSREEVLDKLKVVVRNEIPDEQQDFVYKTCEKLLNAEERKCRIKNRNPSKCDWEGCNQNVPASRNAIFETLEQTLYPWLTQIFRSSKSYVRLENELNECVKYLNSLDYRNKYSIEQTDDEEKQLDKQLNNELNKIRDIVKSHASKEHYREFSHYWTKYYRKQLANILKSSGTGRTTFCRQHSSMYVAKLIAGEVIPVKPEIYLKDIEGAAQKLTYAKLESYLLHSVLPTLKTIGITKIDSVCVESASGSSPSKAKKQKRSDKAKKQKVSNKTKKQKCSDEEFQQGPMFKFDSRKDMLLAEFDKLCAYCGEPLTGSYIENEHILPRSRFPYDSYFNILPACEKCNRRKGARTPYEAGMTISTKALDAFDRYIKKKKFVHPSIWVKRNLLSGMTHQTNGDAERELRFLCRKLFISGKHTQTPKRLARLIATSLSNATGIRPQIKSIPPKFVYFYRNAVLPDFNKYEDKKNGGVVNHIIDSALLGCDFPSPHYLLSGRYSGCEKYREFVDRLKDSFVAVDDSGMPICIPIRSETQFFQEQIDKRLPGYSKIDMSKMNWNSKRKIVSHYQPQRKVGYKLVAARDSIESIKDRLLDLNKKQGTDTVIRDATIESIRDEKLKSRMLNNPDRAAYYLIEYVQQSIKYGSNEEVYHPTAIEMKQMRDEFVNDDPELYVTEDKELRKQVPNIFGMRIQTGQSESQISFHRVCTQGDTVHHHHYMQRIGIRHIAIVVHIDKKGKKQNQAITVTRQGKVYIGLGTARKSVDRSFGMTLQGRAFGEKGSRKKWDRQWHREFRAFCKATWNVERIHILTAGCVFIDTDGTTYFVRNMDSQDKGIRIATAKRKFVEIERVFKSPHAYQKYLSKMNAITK
Nature of the data set: cell_activity; HEK293T; PAM AACC. Particulars: tags: N-term SV40 NLS, XTEN linker + C-term nucleoplasmin NLS. On the procedure: HEK293T cells were transfected with plasmids expressing the Nuclease S polypeptides and the gRNAs provided herein following the methods provided in Example 1 above. Gene editing efficiencies were determined by NGS following the methods also provided in Example 1. The NGS results were analyzed also following the methods provided in Example 1 above.
For each target, indel ratios, referring to the percentage of NGS reads comprising indels, were calculated for the reference and for each variant. The indel ratios used for fold change calculations were the average of two technical replicates. To then calculate fold change in indel ratios at a particular target, the indel ratio for each variant was divided by the indel ratio for the reference. […] Numbering is relative to the reference nuclease of SEQ ID NO: 49 (i.e., without an NLS). […] The average fold change in indel ratio for the D844R variant at all targets was 5.27 times that of the indel ratio for the reference at all targets.

A further data set has as its target T2, Nuclease H (synthetic construct).
T2 chain: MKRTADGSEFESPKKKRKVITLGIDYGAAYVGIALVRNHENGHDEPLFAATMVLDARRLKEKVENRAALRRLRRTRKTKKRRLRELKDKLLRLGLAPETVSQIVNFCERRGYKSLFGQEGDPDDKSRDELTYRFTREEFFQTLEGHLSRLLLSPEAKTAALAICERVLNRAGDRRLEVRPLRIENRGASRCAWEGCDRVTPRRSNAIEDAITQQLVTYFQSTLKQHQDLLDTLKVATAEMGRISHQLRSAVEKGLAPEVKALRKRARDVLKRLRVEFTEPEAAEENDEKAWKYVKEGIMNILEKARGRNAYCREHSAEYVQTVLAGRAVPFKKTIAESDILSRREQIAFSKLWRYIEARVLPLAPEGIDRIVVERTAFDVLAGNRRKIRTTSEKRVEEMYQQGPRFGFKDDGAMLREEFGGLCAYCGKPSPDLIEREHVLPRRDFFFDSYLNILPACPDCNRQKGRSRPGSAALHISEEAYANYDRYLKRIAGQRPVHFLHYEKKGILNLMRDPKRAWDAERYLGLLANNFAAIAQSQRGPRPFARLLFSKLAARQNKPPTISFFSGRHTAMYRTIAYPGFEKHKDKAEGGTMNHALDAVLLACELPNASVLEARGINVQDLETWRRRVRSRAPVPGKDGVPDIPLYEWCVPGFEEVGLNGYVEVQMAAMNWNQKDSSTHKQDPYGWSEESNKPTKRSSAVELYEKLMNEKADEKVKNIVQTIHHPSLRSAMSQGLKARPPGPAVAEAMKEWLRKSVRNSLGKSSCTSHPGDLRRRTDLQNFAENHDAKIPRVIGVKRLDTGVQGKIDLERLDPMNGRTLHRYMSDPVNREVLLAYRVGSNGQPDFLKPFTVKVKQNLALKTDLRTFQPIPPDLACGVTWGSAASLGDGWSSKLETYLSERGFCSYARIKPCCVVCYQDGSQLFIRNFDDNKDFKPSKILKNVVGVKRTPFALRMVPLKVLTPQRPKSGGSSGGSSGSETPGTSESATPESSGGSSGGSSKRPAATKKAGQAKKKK
Nature of the data set: cell_activity; HEK293T; PAM AAC 3'; Table 16 SEQ IDs shifted, guide taken from Table 15. Conditions: tags: N-term SV40 NLS, XTEN linker + C-term nucleoplasmin NLS.

B1: S AAVS1-T7 RNA guide ; AAVS1-T7 target (S) (ssRNA ; dsDNA)
RNA: GGCUAUAAUCCAUGCUGACCGUUGUAUUCGGAUGGGAGUAAAAGGUUGAGUACACCUGGAAACAAAACGACAUAAAGGUGUUCUCCCAUCUGUGUACAAAGAGCAGAUAUAUGAGUUGAUAAGUAAUAUGUUGCACGUAUGGACUUUGACAGUCUGUACCUCUGCGUGAAAGACAUAUUGCGUUAUUCAUAUAUCUGUGAGUCUGUUCUAAAUUUAAAGGUUUAGGGAA
DNA 1: GGCTATAATCCATGCTGACC
DNA 2: GGTCAGCATGGATTATAGCC
For B1, the “fold change in indel ratio vs reference” value with Nuclease S D844R turned out to be 6.37 fold indel vs reference.

B2: H AAVS1-T5 RNA guide ; AAVS1-T5 target (H) (ssRNA ; dsDNA)
RNA: GGCUAUAAUCCAUGCUGACCGUUUCAAUCAACCUGAUCUCUCUGCUUGCGCUGCAGGCUUCAUAAGAUCAGUAGGUUGAAAAGAGCAUCCGUCCGACAUGCACUCCGGGAUGGGGCAGUCCCGGCUCUUGCGGUUCCCGAUGCAGUUAUGUGUCCGCGGAACACGGUGUCGGACACGUCGCAAGACAGGAUGUGAGCCCAUUAUCCACAUUAGGAUCAAUGUACGCAUGAGCAGUCCGCAAUGCCGGGGACGCU
DNA 1: GGCTATAATCCATGCTGACC
DNA 2: GGTCAGCATGGATTATAGCC
B2: the activity with Nuclease H stood at 0.0105 indel ratio.
